Laboratory results as given in article PMC4139611, “Differential expression of Homeobox C11 protein in water buffalo Bubalus bubalis and its putative 3D structure”.

Molecular target: HOXC11 (His-HOXC11) (Bubalus bubalis (water buffalo), UniProt W5XU26 1-304)
Assay: EMSA; supershift with anti-HOXC11 antibody; 10 mM Tris pH 7.9, 1 mM DTT, 0.1 mM EDTA, 50 mM KCl, 5% glycerol, 30 min at 4 °C; 5% native PAGE in 1x TBE at room temperature
Details: protein: recombinant; tags: N-terminal His6 with thrombin site; label: 32P (alpha-32P-dCTP); 5' overhang 4 nt (GATC) at both ends

Sequence of HOXC11 (His-HOXC11) (W5XU26 entry or part of it): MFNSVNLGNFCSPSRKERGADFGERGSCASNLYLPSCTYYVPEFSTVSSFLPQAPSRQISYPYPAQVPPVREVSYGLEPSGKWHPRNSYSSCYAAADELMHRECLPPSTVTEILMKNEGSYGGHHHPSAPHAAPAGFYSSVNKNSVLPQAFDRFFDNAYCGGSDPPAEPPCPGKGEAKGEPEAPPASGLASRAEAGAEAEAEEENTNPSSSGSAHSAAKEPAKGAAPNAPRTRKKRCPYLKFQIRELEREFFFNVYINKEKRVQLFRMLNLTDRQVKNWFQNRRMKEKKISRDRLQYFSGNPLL

B1: CE-LPH1 probe (LPH promoter) (dsDNA)
DNA 1: GATCTTTTACAACCTCAGTTG
DNA 2: GATCCAACTGAGGTTGTAAAA
B1: binds.
